Our source for the koff values is PMC4268634.

Holding throughout (test): SPR
The target of experiment [1] is Z_(VEGFR2_22)-(S4G)4-ABD035-(S4G)4-Z_(VEGFR2_40).
The target of experiment [2] is Z_(VEGFR2_40)-(S4G)4-ABD035-(S4G)4-Z_(VEGFR2_22).
Experiment [3] concerns the target Z_(VEGFR2_40)-(S4G)4-ABD035-(S4G)4-Z_(VEGFR2_40).

For orientation: koff means a measure of how fast the partners let go of each other. Lower therefore signals a long-lived complex. Take “murine VEGFR2 (Sino Biological) (from UniProt P35918 20-762) (receptor)”: the koff in experiment [1] stood at 0.00014 s⁻¹; in experiment [2], 0.00018 s⁻¹; in experiment [3], 0.00079 s⁻¹.
